Assay results published in patent publication US9546211B2 (SINGH MOLECULAR MEDICINE, LLC, priority 2014, dated 2017).
Several values for one entry are separate records, joined by “and”; a condition that tells them apart may be missing. Identical values can stand only once.

Tests used:
TNF-alpha = TNF-alpha (Homo sapiens, UniProt P01375); assay: Inhibition of TNF-alpha cytotoxicity against U937 cells; type: cell-based; conditions: constant dose of TNF-alpha at EC50
MDA-MB-231 cells = assay: MTT proliferation assay, MDA-MB-231; type: cell-based, human; conditions: for Mean Absorbance (570 nM) ± S.E., Overall Mean: 4 experiments;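 for all read-outs here: human cancer cells grown to 90% confluence before treatment, treated groups compared against a vehicle control group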
PANC-1 cells = assay: MTT proliferation assay, PANC-1; type: cell-based, human; conditions: for Mean Absorbance (570 nM) ± S.E., Overall Mean: 3 experiments; for Mean Absorbance (570 nM) ± S.E.: single experiments
[1] = MDA-MB-231, day 3, 10.0 μg/ml, single experiments
[2] = MDA-MB-231, day 3, 100 μg/ml, single experiments
[3] = MDA-MB-231, day 3 post treatment, 0.5 μg/ml

TNF-alpha, sequence (P01375 77-233 limits assumed): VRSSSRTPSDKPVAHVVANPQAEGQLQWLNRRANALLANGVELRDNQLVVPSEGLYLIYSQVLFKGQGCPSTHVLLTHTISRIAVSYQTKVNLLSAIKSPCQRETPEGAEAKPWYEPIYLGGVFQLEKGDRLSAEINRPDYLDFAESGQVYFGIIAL

B1: anti-TNF-alpha VHH69: anti-TNF-alpha sdAb, SEQ ID NO. 46 (TNF_69, SEQ ID NO. 64) (protein)
VHH: EVQLVESGGGSVLAGGSLRLSCVASGFTSRYNYMAWFRQAPGKEREGVATIGTASGSADYYGSVKDRFTISQDNAKNTVYLQMNSLKPEDTAMYYCAARTYGTISLTPSDYRYWGQGTLVTVSS
modifications: Camelid
inhibition of killing of U937 by TNF-alpha (TNF-alpha): inhibit killing

B2: anti-TNF-alpha VHH62: anti-TNF-alpha sdAb, SEQ ID NO. 47 (TNF_62, SEQ ID NO. 66) (protein)
VHH: QVQLVESGGGPVQAGETLRLSCTASGFTFAEADMGWYRQAPGHECELVSTITTEGITSEASSYYADSVRGRFTISRDNAKNMVYLQMNSLKPEDTAVYYCAPDPYAYSTYSDYCSWAQGTQGTLVTVSS
modifications: Camelid
inhibition of killing of U937 by TNF-alpha (TNF-alpha): inhibit killing

B3: B.VHH14: anti-STAT3 single-domain antibody VHH14, SEQ ID NO. 4, bacterial production (protein)
VHH: QVQLVESGGGSVQAGGSLRLSCVASTYTGCMGWFRQAPGKEREGVAALSSRGFAGHYTDSVKGRFSISRDYVKNAVYLQMNTVKPEDAAMYYCAAREGWECGETWLDRTAGGHTYWGQGTLVTVSS
modifications: Camelid
notes: 4, bacterial production
% Inhibition (MDA-MB-231 cells; MDA-MB-231, 3 days, 10.0 μg/ml, single experiments): 23.1% and 20.0% and 38.5% and 23.3%
% Inhibition (MDA-MB-231 cells; MDA-MB-231, 3 days, 100 μg/ml, single experiments): 57.0% and 42.8% and 62.3% and 60.6%
% Inhibition (MDA-MB-231 cells; MDA-MB-231, 5 days, 0.5 μg/ml): 0%
% Inhibition (MDA-MB-231 cells; MDA-MB-231, 5 days, 1.0 μg/ml): 0%
Mean Absorbance (570 nM) ± S.E., Overall Mean (MDA-MB-231 cells; MDA-MB-231, day 3, 10.0 μg/ml): 0.504 ± 0.021
Mean Absorbance (570 nM) ± S.E. (MDA-MB-231 cells; [1]): 0.456 ± 0.048 and 0.499 ± 0.018 and 0.502 ± 0.048 and 0.559 ± 0.041
Mean Absorbance (570 nM) ± S.E., Overall Mean (MDA-MB-231 cells; MDA-MB-231, day 3, 100 μg/ml): 0.302 ± 0.043
Mean Absorbance (570 nM) ± S.E. (MDA-MB-231 cells; [2]): 0.255 ± 0.005 and 0.357 ± 0.019 and 0.308 ± 0.021 and 0.287 ± 0.021
Mean Absorbance (570 nM) ± S.E. (MDA-MB-231 cells; [3]): 0.666 ± 0.022
Mean Absorbance (570 nM) ± S.E., Overall Mean (MDA-MB-231 cells; MDA-MB-231, day 5, 10.0 μg/ml): 0.688 ± 0.131
Mean Absorbance (570 nM) ± S.E., Overall Mean (MDA-MB-231 cells; MDA-MB-231, day 5, 100 μg/ml): 0.475 ± 0.0690

B4: H.VHH14: anti-STAT3 sdAb VHH14, SEQ ID NO. 4; H. not defined, presumably mammalian production (protein)
VHH: QVQLVESGGGSVQAGGSLRLSCVASTYTGCMGWFRQAPGKEREGVAALSSRGFAGHYTDSVKGRFSISRDYVKNAVYLQMNTVKPEDAAMYYCAAREGWECGETWLDRTAGGHTYWGQGTLVTVSS
modifications: Camelid
% Inhibition (MDA-MB-231 cells; MDA-MB-231, 5 days, 0.5 μg/ml): 9.5%
% Inhibition (MDA-MB-231 cells; MDA-MB-231, 5 days, 1.0 μg/ml): 4.9%
% Inhibition (MDA-MB-231 cells; MDA-MB-231, 5 days, 10.0 μg/ml, single experiments): 18.2%
% Inhibition (MDA-MB-231 cells; MDA-MB-231, 5 days, 100 μg/ml, single experiments): 18.9%
Mean Absorbance (570 nM) ± S.E. (MDA-MB-231 cells; [1]): 0.588 ± 0.020
Mean Absorbance (570 nM) ± S.E. (MDA-MB-231 cells; [2]): 0.416 ± 0.030
Mean Absorbance (570 nM) ± S.E. (MDA-MB-231 cells; [3]): 0.485 ± 0.040
Mean Absorbance (570 nM) ± S.E. (MDA-MB-231 cells; MDA-MB-231, day 5, 10.0 μg/ml, single experiments): 0.804 ± 0.015
Mean Absorbance (570 nM) ± S.E. (MDA-MB-231 cells; MDA-MB-231, day 5, 100 μg/ml, single experiments): 0.797 ± 0.010
Mean Absorbance (570 nM) ± S.E., Overall Mean (PANC-1 cells; PANC-1, day 3, 10.0 μg/ml): 1.089 ± 0.085
Mean Absorbance (570 nM) ± S.E. (PANC-1 cells; PANC-1, day 3, 10.0 μg/ml): 0.920 ± 0.133 and 1.183 ± 0.114 and 1.163 ± 0.044
Mean Absorbance (570 nM) ± S.E., Overall Mean (PANC-1 cells; PANC-1, day 3, 100 μg/ml): 0.906 ± 0.054
Mean Absorbance (570 nM) ± S.E. (PANC-1 cells; PANC-1, day 3, 100 μg/ml): 0.808 ± 0.239 and 0.993 ± 0.088 and 0.916 ± 0.088
Mean Absorbance (570 nM) ± S.E., Overall Mean (PANC-1 cells; PANC-1, day 5, 10.0 μg/ml): 1.368 ± 0.247
Mean Absorbance (570 nM) ± S.E. (PANC-1 cells; PANC-1, day 5, 10.0 μg/ml): 1.859 ± 0.033 and 1.165 ± 0.015 and 1.081 ± 0.103
Mean Absorbance (570 nM) ± S.E., Overall Mean (PANC-1 cells; PANC-1, day 5, 100 μg/ml): 0.754 ± 0.333
